Experiment [1] addresses T1, extracellular domain protein of rat MOG to which GST is added at the C-terminus (rMOG-GST) (rat).
T1 construct: whole construct entry
As to the kind of experiment: SPR Biacore T-100, antibody captured, rMOG-GST analyte; KD not unique (kd outside range). The protocol: (§1) The antibodies were immobilized on CM5 sensor chips using a Human antibody Capture kit, and the binding abilities were evaluated using rMOG-GST produced in Example 4 as an analyte. The obtained sensorgrams were analyzed with BIA evaluation software, and the dissociation constants (KD values) were thus calculated.
For orientation: SPR reads the build-up and loss of mass on a sensor chip optically.

The target in experiment [2] is T2, rat MOG (rMOG) expressed on HEK293F cells (rat, UniProt Q63345 28-245).
T2 construct: also called rMOG/HEK293F
T2 sequence: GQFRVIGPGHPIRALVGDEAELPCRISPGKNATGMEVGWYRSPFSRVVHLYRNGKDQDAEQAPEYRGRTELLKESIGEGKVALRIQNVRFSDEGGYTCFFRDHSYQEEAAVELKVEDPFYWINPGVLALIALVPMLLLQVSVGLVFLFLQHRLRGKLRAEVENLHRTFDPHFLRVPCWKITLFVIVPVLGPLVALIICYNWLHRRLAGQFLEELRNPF
As to the kind of experiment: flow cytometry on HEK293 cells transiently expressing rat MOG; antibody at 10 µg/mL, RPE-labelled goat anti-human antibody; negative control anti-AVM antibody. The protocol:
(§2) rMOG/HEK293F, mMOG/IEK293F, cMOG/HEK293 and hMOG/HEK293 cells were suspended in a Staining Buffer (SB) of PBS containing 0.1% NaN₃ and 1% FBS each at a concentration of 5×10⁵ cells/mL and dispensed to a round-bottom 96-well plate (manufactured by Becton Dickinson).
(§3) After centrifugation (2000 rpm, 4° C., two minutes), the supernatants were removed, and the antibodies obtained in Example 6 at 10 μg/mL were added to the pellets. After suspending the pellets, the plate was left to stand at ice temperature for 30 minutes. The supernatants were removed after further centrifugation (2000 rpm, 4° C., two minutes), and the pellets were washed with SB. Then, 1 μg/mL RPE fluorescently labeled goat anti-human antibody (manufactured by […]) was added, and the plate was incubated at ice temperature for 30 minutes.
(§4) After washing with SB, the cells were suspended in SB, and the fluorescence intensities of the cells were measured using a flow cytometer FACS CANTO II (manufactured by Becton Dickinson). As the negative control, an anti-AVM antibody was used.
Background: Flow cytometry measures light scatter and fluorescence of single cells or particles in a stream.

The target of experiment [3] is T3, human MOG (hMOG) expressed on HEK293, Expi293F or L929 cells (human, UniProt Q16653 30-247).
T3 construct: also called hMOG/HEK293; hMOG/HEK293F
T3 chain: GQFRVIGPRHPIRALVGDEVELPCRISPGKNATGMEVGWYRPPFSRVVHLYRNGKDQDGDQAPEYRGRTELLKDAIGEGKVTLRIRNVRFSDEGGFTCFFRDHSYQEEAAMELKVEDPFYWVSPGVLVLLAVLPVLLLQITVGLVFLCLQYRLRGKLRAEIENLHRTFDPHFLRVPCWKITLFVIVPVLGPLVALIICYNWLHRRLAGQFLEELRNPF
Kind of experiment: flow cytometry on HEK293 cells transiently expressing human MOG; antibody at 10 µg/mL, RPE-labelled goat anti-human antibody; negative control anti-AVM antibody. The protocol:
as §2, §3, §4

For experiment [4], the target named is T1, extracellular domain protein of rat MOG …. Kind of experiment: SPR Biacore T-100, antibody captured, rMOG-GST analyte. On the procedure:
as §1

Experiment [5] concerns the target T4, cynomolgus monkey MOG (cMOG) expressed on HEK293 cells (cynomolgus monkey, UniProt Q9BGS7 30-247).
T4 construct: also called cMOG/HEK293
T4 sequence: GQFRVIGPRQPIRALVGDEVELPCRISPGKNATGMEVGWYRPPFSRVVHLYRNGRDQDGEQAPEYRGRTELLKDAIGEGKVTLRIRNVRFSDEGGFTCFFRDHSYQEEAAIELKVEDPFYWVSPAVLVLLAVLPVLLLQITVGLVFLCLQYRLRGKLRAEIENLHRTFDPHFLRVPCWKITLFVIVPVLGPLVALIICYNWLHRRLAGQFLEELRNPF
As to the kind of experiment: flow cytometry on HEK293 cells transiently expressing cynomolgus monkey MOG; antibody at 10 µg/mL, RPE-labelled goat anti-human antibody; negative control anti-AVM antibody. On the procedure: as §2, §3, §4

The target in experiment [6] is T1, extracellular domain protein of rat MOG …. Kind of experiment: SPR Biacore T-100, antibody captured, rMOG-GST analyte; kd outside the measurement range. The protocol:
as §1

B1: MOG09 antibody (anti-MOG human IgG antibody expressed from N5LG4PE_MOG09) (antibody, V domains shown)
VH: QVQLQESGPGLVKSSETLSLTCAVSGHSISSAYYWGWIRQPPGKGLEWLGSIYHSGNTYYNPSLKSRVTISVDTSKNQFSLRLTSVTAADTAVYYCARGRGYSGYDSGMDVWGQGTTVTVSS
VL: SYVLTQPPSASGTPGQRVTISCSGTSSNIGINSVNWYQQLPGMAPKLVIYSRDQRPSGVPDRFSGSQSGTSASLAINGLQSEDEADYWCSTWDDSLNGWVFGGGTKLTVL
The term Kd denotes the free concentration of one partner at which half of the binding sites on the other are occupied at equilibrium, for simple one-to-one binding. The term kon denotes a measure of how fast the partners come together. One may read the koff as the rate constant with which the complex falls apart. For B1, the Kd in experiment [1] was determined as 0.021 nM. In addition, the binding result in experiment [2], in experiment [3] and in experiment [5] was “binds” throughout. The kon in experiment [4] amounted to 9000 M⁻¹ s⁻¹. Besides, in experiment [6], the koff was 1.9e-07 s⁻¹.

These data come from US20260092110A1 (Kyowa Kirin, published 2026).
